Reference: publication doi:10.1101/2021.10.18.464838, “Two distinct classes of co-chaperones compete for the EEVD motif in heat shock protein 70 (Hsp70) to tune its activity” (bioRxiv, 2021)
Where “and” joins values, the source holds several entries; their conditions need not be identical. Equal values may be shown once. Where no end group is shown, it is not given here. The star is where a group is joined. FITC = O=C1OC2(c3ccc(O)cc3Oc3cc(O)ccc32)c2ccc(NC(=S)*)cc21; Ahx = NCCCCCC(=O)O

B5: Hsp72 phosphomimetic T636E tracer FITC-Ahx-GSGPEIEEVD (peptide)
peptide: GSGPEIEEVD-OH
modifications: not fully specified (N-terminus); printed as FITC-Ahx-GSGPEIEEVD
notes: last 10 residues of Hsp72/HSPA1A with the P6 Thr changed to Glu; also called T636E Hsp72 fluorescent tracer; P6 Thr to Glu; source: synthetic peptide, bought: GenScript

Tests used:
Conditions in all cases: both partners purified
[1] = biological target: T1, DnaJB4 (recombinant, human, full length, wild type) (human, UniProt Q9UDY4 1-337); test: fluorescence polarisation; saturation binding: 20 nM Hsp72 tracer with DnaJB4 (WT or QPD) 110 to 0.013 µM in 2X dilutions; 50 mM Tris, 15 mM NaCl, 1 mM DTT, 0.01% Triton X-100, pH 8.0; room temperature, 30 min
T1 construct: DnaJB4, human, full length; Expressed from pMCSG7 with a TEV site; also called WT DnaJB4; Class B JDP; source: E. coli BL21 (DE3) Rosetta, purified (Ni-NTA, TEV cleavage, SEC); not shown: His6, N-terminal, cleaved

[2] = biological target: T1, DnaJB4 (recombinant, human, full …); test: fluorescence polarisation; competition: 100 µM unlabeled peptide, 5 µM DnaJB4, 20 nM Hsp72 tracer in JDP binding buffer; room temperature, 30 min; tracer displacement relative to DMSO control
[3] = biological target: B5; test: fluorescence polarisation; saturation binding: 20 nM Hsp72 tracer with CHIP 110 to 0.013 µM in 2X dilutions; 50 mM HEPES, 50 mM KCl, 0.01% Triton X-100, pH 7.4; room temperature, 30 min

T1 sequence (Q9UDY4 whole entry): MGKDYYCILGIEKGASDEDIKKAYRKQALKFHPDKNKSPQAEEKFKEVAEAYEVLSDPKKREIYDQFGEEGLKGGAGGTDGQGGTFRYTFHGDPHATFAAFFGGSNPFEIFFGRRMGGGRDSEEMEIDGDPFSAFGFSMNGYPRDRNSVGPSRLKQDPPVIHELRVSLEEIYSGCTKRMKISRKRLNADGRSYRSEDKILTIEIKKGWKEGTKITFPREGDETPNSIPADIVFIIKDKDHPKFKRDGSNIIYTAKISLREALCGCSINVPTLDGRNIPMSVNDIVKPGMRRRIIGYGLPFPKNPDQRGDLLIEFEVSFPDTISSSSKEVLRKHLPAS

B1: Hsp72 tracer FITC-Ahx-GSGPTIEEVD (peptide)
peptide: {FITC-Ahx}-GSGPTIEEVD-OH
modifications: not fully specified; printed as FITC-Ahx-GSGPTIEEVD
notes: last 10 residues of Hsp72/HSPA1A; also called EEVD tracer; fluorescent Hsp72 peptide; source: synthetic peptide, bought: GenScript
- Kd [1]: 1910 nM and 1690 nM

B2: Hsp72 C-terminal 7-mer peptide PTIEEVD (peptide)
peptide: Ac-PTIEEVD-OH
notes: last 7 residues of Hsp72/HSPA1A; also called last 7 amino acids of Hsp70's C-terminus; source: synthetic peptide, bought: GenScript
- binding result [2]: binds

B3: Hsp72 10-mer peptide with the P5 Ile replaced by Met (peptide, UniProt P0DMV8 632-641, looked up)
peptide: Ac-GSGPTMEEVD-OH
notes: also called P5 Ile to Met mutant; source: synthetic peptide, bought: GenScript
- binding result [2]: binds

B4: CHIP (recombinant human) (natural protein, UniProt Q9UNE7 1-303, looked up)
chain: MKGKEEKEGGARLGAGGGSPEKSPSAQELKEQGNRLFVGRKYPEAAACYGRAITRNPLVAVYYTNRALCYLKMQQHEQALADCRRALELDGQSVKAHFFLGQCQLEMESYDEAIANLQRAYSLAKEQRLNFGDDIPSALRIAKKKRWNSIEERRIHQESELHSYLSRLIAAERERELEECQRNHEGDEDDSHVRAQQACIEAKHDKYMADMDELFSQVDEKRKKRDIPDYLCGKISFELMREPCITPSGITYDRKDIEEHLQRVGHFDPVTRSPLTQEQLIPNLAMKEVIDAFISENGWVEDY
notes: CHIP, human; also called E3 ubiquitin ligase CHIP; TPR domain co-chaperone; source: E. coli BL21(DE3), purified (Ni-NTA, TEV cleavage, SEC); not shown: His6, N-terminal, cleaved
- fold weakening of the affinity against the WT tracer [3]: 5 fold

Binder: B5
- binding result [1]: binds
